From patent US20250136695A1 come the findings set out here.

Test [1] concerns the target PDL1 (Fc-cut) antigen (UniProt Q9NZQ7). In words: ELISA on coated PDL1 (Fc-cut), IgG (H+L) secondary antibody; PBS blank 0.121 / 0.102.
Test [2] has the same target. In words: ELISA on coated PDL1 (Fc-cut), VHH secondary antibody; PBS blank 0.181 / 0.212.
Test [3] addresses PDL1 expressed on recombinant CHO cells (CHO-K1/PDL1; aAPC CHO-PDL1) (UniProt Q9NZQ7).

Chain of PDL1 (Fc-cut) antigen (Q9NZQ7 19-238 limits assumed): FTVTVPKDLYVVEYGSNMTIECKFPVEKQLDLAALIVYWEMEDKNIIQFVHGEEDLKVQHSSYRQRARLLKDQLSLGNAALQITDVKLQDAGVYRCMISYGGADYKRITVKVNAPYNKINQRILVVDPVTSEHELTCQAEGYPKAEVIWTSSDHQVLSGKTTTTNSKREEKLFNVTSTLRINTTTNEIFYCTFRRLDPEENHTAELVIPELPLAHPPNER
Chain of PDL1 expressed on recombinant CHO cells (CHO-K1/PDL1; aAPC CHO-PDL1) (Q9NZQ7 19-290 limits assumed): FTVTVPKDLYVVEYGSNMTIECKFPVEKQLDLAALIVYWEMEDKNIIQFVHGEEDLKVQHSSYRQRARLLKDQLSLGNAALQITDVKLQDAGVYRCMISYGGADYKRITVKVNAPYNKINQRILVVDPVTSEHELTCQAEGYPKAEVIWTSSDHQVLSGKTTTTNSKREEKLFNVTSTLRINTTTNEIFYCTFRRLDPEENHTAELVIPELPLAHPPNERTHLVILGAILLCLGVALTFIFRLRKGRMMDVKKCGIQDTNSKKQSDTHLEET

In the test with PDL1 (Fc-cut) antigen [1], Unimmunized serum showed an OD450, serum 1:1K, well 1 of 2 of 0.189; an OD450, serum 1:1K, well 2 of 2 of 0.176; an OD450, serum 1:2K, well 1 of 2 of 0.145; an OD450, serum 1:2K, well 2 of 2 of 0.159. Also, in the test with PDL1 (Fc-cut) antigen [1], the OD450, serum 1:4K, well 1 of 2 came out at 0.124; the OD450, serum 1:4K, well 2 of 2 stood at 0.12; the OD450, serum 1:8K, well 1 of 2 stood at 0.107; the OD450, serum 1:8K, well 2 of 2 amounted to 0.116. For the same substance, in the test with PDL1 (Fc-cut) antigen [1], the OD450, serum 1:16K, well 1 of 2 stood at 0.118; the OD450, serum 1:16K, well 2 of 2 turned out to be 0.12; the OD450, serum 1:32K, well 1 of 2 was 0.125; the OD450, serum 1:32K, well 2 of 2 was found to be 0.118. Further, in the test with PDL1 (Fc-cut) antigen [1], the OD450, serum 1:64K, well 1 of 2 turned out to be 0.141 and the OD450, serum 1:64K, well 2 of 2 turned out to be 0.115. In the test with PDL1 (Fc-cut) antigen [2], this substance showed an OD450, serum 1:1K, well 1 of 2 of 0.176; an OD450, serum 1:1K, well 2 of 2 of 0.166; an OD450, serum 1:2K, well 1 of 2 of 0.194; an OD450, serum 1:2K, well 2 of 2 of 0.213. Further, in the test with PDL1 (Fc-cut) antigen [2], the OD450, serum 1:4K, well 1 of 2 was 0.207; the OD450, serum 1:4K, well 2 of 2 worked out at 0.236; the OD450, serum 1:8K, well 1 of 2 amounted to 0.205; the OD450, serum 1:8K, well 2 of 2 came to 0.236. In the test with PDL1 (Fc-cut) antigen [2], this substance gave an OD450, serum 1:16K, well 1 of 2 of 0.232; an OD450, serum 1:16K, well 2 of 2 of 0.249; an OD450, serum 1:32K, well 1 of 2 of 0.224; an OD450, serum 1:32K, well 2 of 2 of 0.253. In the test with PDL1 (Fc-cut) antigen [2], this substance yielded an OD450, serum 1:64K, well 1 of 2 of 0.201 and an OD450, serum 1:64K, well 2 of 2 of 0.224.
Take Atezolizumab (antibody): in test [3], the EC50 of the PD1/PDL1 Block Assay (luciferase fold of induction, Jurkat-PD-1-NFAT-Luc + aAPC CHO-PDL1) is 6.04 µg/mL.
